Test results taken from paper PMC9482650, “Quantitative fragmentomics allow affinity mapping of interactomes” (Nature Communications, 2022).
Numbering of substitutions follows the chain as printed.

T1: GRIP1_3, Q9Y3R0
T1 sequence (Q9Y3R0 247-346, limits assumed, looked up): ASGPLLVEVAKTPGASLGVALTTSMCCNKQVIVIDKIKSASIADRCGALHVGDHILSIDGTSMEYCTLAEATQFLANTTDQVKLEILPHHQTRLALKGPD

T2: HTRA3, P83110
T2 sequence (P83110 354-453, limits assumed, looked up): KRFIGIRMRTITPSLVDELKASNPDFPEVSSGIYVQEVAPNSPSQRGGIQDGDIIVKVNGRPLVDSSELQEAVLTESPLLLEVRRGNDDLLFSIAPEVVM

T3: LIN7C, Q9NUP9
T3 sequence (Q9NUP9 88-185, limits assumed, looked up): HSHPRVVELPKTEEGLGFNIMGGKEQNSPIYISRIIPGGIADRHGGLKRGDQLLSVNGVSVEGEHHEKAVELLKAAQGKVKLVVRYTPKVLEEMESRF

T4: ARHGEF11, O15085
T4 sequence (O15085 42-136, limits assumed, looked up): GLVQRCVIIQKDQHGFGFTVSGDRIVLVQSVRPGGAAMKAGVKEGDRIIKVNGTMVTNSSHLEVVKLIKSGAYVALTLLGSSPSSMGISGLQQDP

T5: SIPA1L2, Q9P2F8
T5 sequence (Q9P2F8 945-1036, limits assumed, looked up): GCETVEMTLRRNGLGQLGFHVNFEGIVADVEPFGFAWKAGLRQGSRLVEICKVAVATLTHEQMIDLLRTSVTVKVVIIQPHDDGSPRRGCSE

T6: GRIP1_4, Q9Y3R0
T6 sequence (Q9Y3R0 467-571, limits assumed, looked up): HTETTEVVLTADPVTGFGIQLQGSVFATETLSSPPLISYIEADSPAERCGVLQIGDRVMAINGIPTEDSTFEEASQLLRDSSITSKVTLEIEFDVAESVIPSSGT

T7: PDZRN3_1, Q9UPQ7
T7 sequence (Q9UPQ7 244-349, limits assumed, looked up): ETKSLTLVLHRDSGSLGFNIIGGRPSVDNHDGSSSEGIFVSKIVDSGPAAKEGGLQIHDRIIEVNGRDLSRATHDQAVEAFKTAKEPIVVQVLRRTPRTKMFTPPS

T8: LIN7B, Q9HAP6
T8 sequence (Q9HAP6 88-185, limits assumed, looked up): T3 sequence (Q9NUP9 88-185, limits assumed, looked up) with S2A, E13D, I35V, I40V, H65Q, K79S, K89R, S96A

T9: SNTA1, Q13424
T9 sequence (Q13424 82-180, limits assumed, looked up): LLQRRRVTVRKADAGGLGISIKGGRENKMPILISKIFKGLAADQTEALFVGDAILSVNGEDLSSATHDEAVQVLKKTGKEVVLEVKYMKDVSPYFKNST

T10: DFNB31_1, Q9P202
T10 sequence (Q9P202 135-233, limits assumed, looked up): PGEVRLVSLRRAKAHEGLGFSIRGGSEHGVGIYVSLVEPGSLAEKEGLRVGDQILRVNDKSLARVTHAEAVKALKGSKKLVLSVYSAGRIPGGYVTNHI

T11: DFNB31_3, Q9P202
T11 sequence (Q9P202 811-907, limits assumed, looked up): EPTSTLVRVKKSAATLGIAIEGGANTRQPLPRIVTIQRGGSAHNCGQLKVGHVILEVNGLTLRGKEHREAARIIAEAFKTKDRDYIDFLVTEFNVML

T12: DLG3_3, Q92796
T12 sequence (Q92796 374-475, limits assumed, looked up): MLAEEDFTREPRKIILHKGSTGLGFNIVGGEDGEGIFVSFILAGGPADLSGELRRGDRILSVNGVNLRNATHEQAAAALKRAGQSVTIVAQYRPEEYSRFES

T13: MPP7, Q5T2T1
T13 sequence (Q5T2T1 134-230, limits assumed, looked up): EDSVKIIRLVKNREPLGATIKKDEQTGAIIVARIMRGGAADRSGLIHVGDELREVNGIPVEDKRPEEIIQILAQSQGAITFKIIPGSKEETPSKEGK


target: T1, GRIP1_3, Q9Y3R0; experiment: holdup assay; parameters: key: below the threshold = too weak to quantify, mostly under pKd 3.1 to 4; settings: plain residues with an end cap or a label only (N-terminal biotin on a linker: ado-ado)

pKd	Binder
below the threshold	KEKASTETEC [TRPM1, Q7Z4N2]
below the threshold	KPDKQEEFYA [SDC3, O75056]
below the threshold	RDYTQSSSSL [GRM5, P41594]

target: T2, HTRA3, P83110; experiment: holdup assay; parameters: key: below the threshold = too weak to quantify, mostly under pKd 3.1 to 4; settings: plain residues with an end cap or a label only (N-terminal biotin on a linker: ado-ado)

pKd	Binder
3.58	KEKASTETEC [TRPM1, Q7Z4N2]
4.41	KPDKQEEFYA [SDC3, O75056]
below the threshold	RDYTQSSSSL [GRM5, P41594]

target: T3, LIN7C, Q9NUP9; experiment: holdup assay; parameters: key: below the threshold = too weak to quantify, mostly under pKd 3.1 to 4; settings: plain residues with an end cap or a label only (N-terminal biotin on a linker: ado-ado)

pKd	Binder
3.93	KEKASTETEC [TRPM1, Q7Z4N2]
below the threshold	KPDKQEEFYA [SDC3, O75056]
below the threshold	RDYTQSSSSL [GRM5, P41594]

target: FRMPD4, Q14CM0; experiment: holdup assay; parameters: key: below the threshold = too weak to quantify, mostly under pKd 3.1 to 4; settings: plain residues with an end cap or a label only (N-terminal biotin on a linker: ado-ado)
Sequence (Q14CM0 67-160): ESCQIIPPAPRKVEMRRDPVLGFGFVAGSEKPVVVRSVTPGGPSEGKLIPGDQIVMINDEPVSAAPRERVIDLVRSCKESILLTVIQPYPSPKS

pKd	Binder
below the threshold	KEKASTETEC [TRPM1, Q7Z4N2]
3.49	KPDKQEEFYA [SDC3, O75056]
3.65	RDYTQSSSSL [GRM5, P41594]

target: MAGI2_4, Q86UL8; experiment: holdup assay; parameters: key: below the threshold = too weak to quantify, mostly under pKd 3.1 to 4; settings: plain residues with an end cap or a label only (N-terminal biotin on a linker: ado-ado)
Sequence (Q86UL8 772-865): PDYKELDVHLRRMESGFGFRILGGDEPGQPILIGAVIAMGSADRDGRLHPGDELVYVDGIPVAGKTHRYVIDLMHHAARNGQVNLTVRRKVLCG

pKd	Binder
below the threshold	KEKASTETEC [TRPM1, Q7Z4N2]
below the threshold	KPDKQEEFYA [SDC3, O75056]
below the threshold	RDYTQSSSSL [GRM5, P41594]

target: GRID2IP_1, A4D2P6; experiment: holdup assay; parameters: key: below the threshold = too weak to quantify, mostly under pKd 3.1 to 4; settings: plain residues with an end cap or a label only (N-terminal biotin on a linker: ado-ado)
Sequence (A4D2P6 1-87): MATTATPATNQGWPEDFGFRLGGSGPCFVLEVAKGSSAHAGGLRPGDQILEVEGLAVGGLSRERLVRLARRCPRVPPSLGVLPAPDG

pKd	Binder
below the threshold	KEKASTETEC [TRPM1, Q7Z4N2]
below the threshold	KPDKQEEFYA [SDC3, O75056]
below the threshold	RDYTQSSSSL [GRM5, P41594]

target: T4, ARHGEF11, O15085; experiment: holdup assay; parameters: key: below the threshold = too weak to quantify, mostly under pKd 3.1 to 4; settings: plain residues with an end cap or a label only (N-terminal biotin on a linker: ado-ado)

pKd	Binder
below the threshold	KEKASTETEC [TRPM1, Q7Z4N2]
below the threshold	KPDKQEEFYA [SDC3, O75056]
3.79	RDYTQSSSSL [GRM5, P41594]

target: GORASP2, Q9H8Y8; experiment: holdup assay; parameters: key: below the threshold = too weak to quantify, mostly under pKd 3.1 to 4; settings: plain residues with an end cap or a label only (N-terminal biotin on a linker: ado-ado)

pKd	Binder
below the threshold	KEKASTETEC [TRPM1, Q7Z4N2]
below the threshold	KPDKQEEFYA [SDC3, O75056]
below the threshold	RDYTQSSSSL [GRM5, P41594]

target: GRIP2_5, Q9C0E4; experiment: holdup assay; parameters: key: below the threshold = too weak to quantify, mostly under pKd 3.1 to 4; settings: plain residues with an end cap or a label only (N-terminal biotin on a linker: ado-ado)
Sequence (Q9C0E4 544-642): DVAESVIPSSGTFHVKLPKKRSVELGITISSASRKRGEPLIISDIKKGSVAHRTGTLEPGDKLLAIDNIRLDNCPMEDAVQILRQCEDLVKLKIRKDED

pKd	Binder
below the threshold	KEKASTETEC [TRPM1, Q7Z4N2]
below the threshold	KPDKQEEFYA [SDC3, O75056]
below the threshold	RDYTQSSSSL [GRM5, P41594]

target: T5, SIPA1L2, Q9P2F8; experiment: holdup assay; parameters: key: below the threshold = too weak to quantify, mostly under pKd 3.1 to 4; settings: plain residues with an end cap or a label only (N-terminal biotin on a linker: ado-ado)

pKd	Binder
below the threshold	KEKASTETEC [TRPM1, Q7Z4N2]
below the threshold	KPDKQEEFYA [SDC3, O75056]
below the threshold	RDYTQSSSSL [GRM5, P41594]

target: GOPC, Q9HD26; experiment: holdup assay; parameters: key: below the threshold = too weak to quantify, mostly under pKd 3.1 to 4; settings: plain residues with an end cap or a label only (N-terminal biotin on a linker: ado-ado)

pKd	Binder
below the threshold	KEKASTETEC [TRPM1, Q7Z4N2]
below the threshold	KPDKQEEFYA [SDC3, O75056]
3.55	RDYTQSSSSL [GRM5, P41594]

target: T6, GRIP1_4, Q9Y3R0; experiment: holdup assay; parameters: key: below the threshold = too weak to quantify, mostly under pKd 3.1 to 4; settings: plain residues with an end cap or a label only (N-terminal biotin on a linker: ado-ado)

pKd	Binder
below the threshold	KEKASTETEC [TRPM1, Q7Z4N2]
below the threshold	KPDKQEEFYA [SDC3, O75056]
below the threshold	RDYTQSSSSL [GRM5, P41594]

target: T7, PDZRN3_1, Q9UPQ7; experiment: holdup assay; parameters: key: below the threshold = too weak to quantify, mostly under pKd 3.1 to 4; settings: plain residues with an end cap or a label only (N-terminal biotin on a linker: ado-ado)

pKd	Binder
below the threshold	KEKASTETEC [TRPM1, Q7Z4N2]
below the threshold	KPDKQEEFYA [SDC3, O75056]
3.56	RDYTQSSSSL [GRM5, P41594]

target: T8, LIN7B, Q9HAP6; experiment: holdup assay; parameters: key: below the threshold = too weak to quantify, mostly under pKd 3.1 to 4; settings: plain residues with an end cap or a label only (N-terminal biotin on a linker: ado-ado)

pKd	Binder
3.77	KEKASTETEC [TRPM1, Q7Z4N2]
3.78	KPDKQEEFYA [SDC3, O75056]
3.52	RDYTQSSSSL [GRM5, P41594]

target: Inadl_2, Q8NI35; experiment: holdup assay; parameters: key: below the threshold = too weak to quantify, mostly under pKd 3.1 to 4; settings: plain residues with an end cap or a label only (N-terminal biotin on a linker: ado-ado)
Sequence (Q8NI35 238-335): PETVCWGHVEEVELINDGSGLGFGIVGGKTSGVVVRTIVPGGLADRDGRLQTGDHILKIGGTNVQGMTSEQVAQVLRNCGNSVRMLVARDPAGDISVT

pKd	Binder
below the threshold	KEKASTETEC [TRPM1, Q7Z4N2]
below the threshold	KPDKQEEFYA [SDC3, O75056]
below the threshold	RDYTQSSSSL [GRM5, P41594]

target: T9, SNTA1, Q13424; experiment: holdup assay; parameters: key: below the threshold = too weak to quantify, mostly under pKd 3.1 to 4; settings: plain residues with an end cap or a label only (N-terminal biotin on a linker: ado-ado)

pKd	Binder
3.77	KEKASTETEC [TRPM1, Q7Z4N2]
below the threshold	KPDKQEEFYA [SDC3, O75056]
below the threshold	RDYTQSSSSL [GRM5, P41594]

target: T10, DFNB31_1, Q9P202; experiment: holdup assay; parameters: key: below the threshold = too weak to quantify, mostly under pKd 3.1 to 4; settings: plain residues with an end cap or a label only (N-terminal biotin on a linker: ado-ado)

pKd	Binder
below the threshold	KEKASTETEC [TRPM1, Q7Z4N2]
below the threshold	KPDKQEEFYA [SDC3, O75056]
below the threshold	RDYTQSSSSL [GRM5, P41594]

target: GORASP1, Q9BQQ3; experiment: holdup assay; parameters: key: below the threshold = too weak to quantify, mostly under pKd 3.1 to 4; settings: plain residues with an end cap or a label only (N-terminal biotin on a linker: ado-ado)
Sequence (Q9BQQ3 1-208): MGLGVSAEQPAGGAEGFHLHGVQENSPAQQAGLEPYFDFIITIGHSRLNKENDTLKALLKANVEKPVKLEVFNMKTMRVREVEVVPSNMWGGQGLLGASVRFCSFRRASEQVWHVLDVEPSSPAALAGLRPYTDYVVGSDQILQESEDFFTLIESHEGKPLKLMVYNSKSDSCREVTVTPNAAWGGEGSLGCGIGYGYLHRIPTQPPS

pKd	Binder
below the threshold	KEKASTETEC [TRPM1, Q7Z4N2]
below the threshold	KPDKQEEFYA [SDC3, O75056]
below the threshold	RDYTQSSSSL [GRM5, P41594]

target: GIPC2, Q8TF65; experiment: holdup assay; parameters: key: below the threshold = too weak to quantify, mostly under pKd 3.1 to 4; settings: plain residues with an end cap or a label only (N-terminal biotin on a linker: ado-ado)
Sequence (Q8TF65 112-203): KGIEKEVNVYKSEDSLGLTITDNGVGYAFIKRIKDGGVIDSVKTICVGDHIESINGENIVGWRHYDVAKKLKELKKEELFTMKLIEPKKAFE

pKd	Binder
4.1	KEKASTETEC [TRPM1, Q7Z4N2]
below the threshold	KPDKQEEFYA [SDC3, O75056]
below the threshold	RDYTQSSSSL [GRM5, P41594]

target: T11, DFNB31_3, Q9P202; experiment: holdup assay; parameters: key: below the threshold = too weak to quantify, mostly under pKd 3.1 to 4; settings: plain residues with an end cap or a label only (N-terminal biotin on a linker: ado-ado)

pKd	Binder
3.64	KEKASTETEC [TRPM1, Q7Z4N2]
3.49	KPDKQEEFYA [SDC3, O75056]
below the threshold	RDYTQSSSSL [GRM5, P41594]

target: T12, DLG3_3, Q92796; experiment: holdup assay; parameters: key: below the threshold = too weak to quantify, mostly under pKd 3.1 to 4; settings: plain residues with an end cap or a label only (N-terminal biotin on a linker: ado-ado)

pKd	Binder
below the threshold	KEKASTETEC [TRPM1, Q7Z4N2]
below the threshold	KPDKQEEFYA [SDC3, O75056]
below the threshold	RDYTQSSSSL [GRM5, P41594]

target: NHERF4_2, Q86UT5; experiment: holdup assay; parameters: key: below the threshold = too weak to quantify, mostly under pKd 3.1 to 4; settings: plain residues with an end cap or a label only (N-terminal biotin on a linker: ado-ado)
Sequence (Q86UT5 220-308): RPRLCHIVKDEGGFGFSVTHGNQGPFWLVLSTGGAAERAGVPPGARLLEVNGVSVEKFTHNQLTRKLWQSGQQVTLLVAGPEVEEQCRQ

pKd	Binder
below the threshold	KEKASTETEC [TRPM1, Q7Z4N2]
below the threshold	KPDKQEEFYA [SDC3, O75056]
below the threshold	RDYTQSSSSL [GRM5, P41594]

target: T13, MPP7, Q5T2T1; experiment: holdup assay; parameters: key: below the threshold = too weak to quantify, mostly under pKd 3.1 to 4; settings: plain residues with an end cap or a label only (N-terminal biotin on a linker: ado-ado)

pKd	Binder
below the threshold	KEKASTETEC [TRPM1, Q7Z4N2]
below the threshold	KPDKQEEFYA [SDC3, O75056]
below the threshold	RDYTQSSSSL [GRM5, P41594]

target: DLG4_2, P78352; experiment: holdup assay; parameters: key: below the threshold = too weak to quantify, mostly under pKd 3.1 to 4; settings: plain residues with an end cap or a label only (N-terminal biotin on a linker: ado-ado)
Sequence (P78352 155-259): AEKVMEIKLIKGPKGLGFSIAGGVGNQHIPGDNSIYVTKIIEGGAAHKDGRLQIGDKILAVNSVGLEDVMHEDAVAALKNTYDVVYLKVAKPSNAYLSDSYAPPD

pKd	Binder
3.9	KEKASTETEC [TRPM1, Q7Z4N2]
below the threshold	KPDKQEEFYA [SDC3, O75056]
below the threshold	RDYTQSSSSL [GRM5, P41594]

target: CASK, O14936; experiment: holdup assay; parameters: key: below the threshold = too weak to quantify, mostly under pKd 3.1 to 4; settings: plain residues with an end cap or a label only (N-terminal biotin on a linker: ado-ado)
Sequence (O14936 487-570): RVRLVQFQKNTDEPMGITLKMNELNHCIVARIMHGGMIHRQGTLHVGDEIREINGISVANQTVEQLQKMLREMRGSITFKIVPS

pKd	Binder
below the threshold	KEKASTETEC [TRPM1, Q7Z4N2]
below the threshold	KPDKQEEFYA [SDC3, O75056]
below the threshold	RDYTQSSSSL [GRM5, P41594]
